Results on 1 substance are retold here after patent US20100240056.

The data set relates to EcR-B/VP16-USP heterodimer (Leptinotarsa decemlineata). Kind of data set: EMSA. To be noted: reference band for densitometry; little change with agonist. On the technique in general: In EMSA bound probe runs differently from free probe, usually more slowly.

With hsp27 EcRE probe, the binding signal was 1.
